A short description of this assay: Specificity of different cyclodextrin glucosyltransferases to glycosylated genistein products (maltodextrin donor, genistein receptor, HPLC). Format: biochemical. Conditions: for content of long-chain glycosylated genistein in the reaction solution / content of short-chain glycosylated genistein in the reaction solution / ratio of the molar content of long-chain glycosylated genistein to the molar content of total glycosylated genistein in the reaction solution / ratio of the molar content of short-chain glycosylated genistein to the molar content of total glycosylated genistein in the reaction solution: 40° C., pH 6.5, 120 rpm, 20-24 hours; for specificity to long-chain glycosylated genistein products in comparison with wild type: in words, from Tables 1 to 2; for increase of the yield of long-chain glycosylated genistein compared with wild-type cyclodextrin glucosyltransferase: versus wild type. As to the method:
Genistein (purchased from Sigma) was dissolved in dimethyl sulfoxide (DMSO) to prepare a genistein solution with a final concentration of 7.5 g/L; maltodextrin (purchased from Shanghai Sangon Biotech Co., Ltd.) was dissolved in a PBS buffer (50 mM, pH 6.5) to prepare a maltodextrin solution with a final concentration of 40 g/L; the freeze-fried pure enzymes of the mutants A156V/L174P, A156V/L174P/166Y, A156V/L174P/A166V, A156V/L174P/A166G, A156V/L174P/A166K, A156S, A156L and L174M obtained in Example 1 were dissolved in a PBS buffer (50 mM, pH 6.5) separately to prepare a CGTase enzyme solution with a final concentration of 15 U/L; 300 μL of the genistein solution, 500 μL of the maltodextrin solution and 200 μL of the CGTase enzyme solution were taken separately, mixed in a 2 mL vial with a lid and placed in a shaker for slow shaking at 40° C. and 120 rpm for 20-24 hours to obtain a reaction solution.
The molar content of short-chain glycosylated genistein (here the short-chain glycosylated genistein was a mixture of monoglycosylated genistein, diglycosylated genistein and triglycosylated genistein) and long-chain glycosylated genistein (here the long-chain glycosylated genistein was a mixture of tetraglycosylated genistein, pentaglycosylated genistein and hexaglycosylated genistein) in the reaction solution was detected by HPLC, the ratio (%) of the molar content of short-chain glycosylated genistein and long-chain glycosylated genistein in the reaction solution to the molar content of total glycosylated genistein in the reaction solution and the content (g/L) of short-chain glycosylated genistein and long-chain glycosylated genistein in the reaction solution were calculated, and detection results were shown in Tables 1 to 2. A method for detecting the ratio (%) of the content of short-chain glycosylated genistein and long-chain glycosylated genistein in the reaction solution to the content of total glycosylated genistein in the reaction solution by HPLC included that the reaction solution was filtered through a 0.22 μm filter membrane, and an Amethyst C18-H column (4.6*250 mm, Sepax, America) was used for detection (see Table 3 for specific detection conditions). The content of long-chain glycosylated genistein=the molar content of hexaglycosylated genistein*the molecular weight of hexaglycosylated genistein+ the molar content of pentaglycosylated genistein*the molecular weight of pentaglycosylated genistein+ the molar content of tetraglycosylated genistein*the molecular weight of tetraglycosylated genistein, and the content of short-chain glycosylated genistein=the molar content of triglycosylated genistein*the molecular weight of triglycosylated genistein+ the molar content of diglycosylated genistein*the molecular weight of diglycosylated genistein+ the molar content of monoglycosylated genistein*the molecular weight of monoglycosylated genistein.

B1: A156V/L174P: cyclodextrin glucosyltransferase mutant: alanine 156 into valine and leucine 174 into proline of SEQ ID NO: 1 (protein)
chain: SPDTSVDNKVNFSTDVIYQIVTDRFADGDRTNNPAGDAFSGDRSNLKLYFGGDWQGIIDKINDGYLTGMGVTALWISQPVENITSVIKYSGVNNTSYHGYWARDFKQTNDAFGDFADFQNLIDTAHAHNIKVVIDFAPNHTSPADRDNPGFAENGVLYDNGSLLGAYSNDTAGPFHHNGGTDFSTIEDGIYKNLYDLADINHNNNAMDAYFKSAIDLWLGMGVDGIRFDAVKHMPFGWQKSFVSSIYGGDHPVFTFGEWYLGADQTDGDNIKFANESGMNLLDFEYAQEVREVFRDKTETMKDLYEVLASTESQYDYINNMVTFIDNHDMDRFQVAGSGTRATEQALALTLTSRGVPAIYYGTEQYMTGDGDPNNRAMMTSFNTGTTAYKVIQALAPLRKSNPAIAYGTTTERWVNNDVLIIERKFGSSAALVAINRNSSAAYPISGLLSSLPAGTYSDVLNGLLNGNSITVGSGGAVTNFTLAAGGTAVWQYTAPETSPAIGNVGPTMGQPGNIVTIDGRGFGGTAGTVYFGTTAVTGSGIVSWEDTQIKAVIPKVAAGKTGVSVKTSSGTASNTFKSFNVLTGDQVTVRFLVNQANTNYGTNVYLVGNAAELGSWDPNKAIGPMYNQVIAKYPSWYYDVSVPAGTKLDFKFIKKGGGTVTWEGGGNHTYTTPASGVGTVTVDWQN
modifications: Translated from synthetic DNA
Turning to B1, the “content of long-chain glycosylated genistein in the reaction solution” value is 5.2 g/L, the “content of short-chain glycosylated genistein in the reaction solution” value came to 9.7 g/L, the “ratio of the molar content of long-chain glycosylated genistein to the molar content of total glycosylated genistein in the reaction solution” value was determined as 25% and the “ratio of the molar content of short-chain glycosylated genistein to the molar content of total glycosylated genistein in the reaction solution” value is listed as 75%. In addition, the “specificity to long-chain glycosylated genistein products in comparison with wild type” value was “significantly improved” and the “increase of the yield of long-chain glycosylated genistein compared with wild-type cyclodextrin glucosyltransferase” value is 62.5%.

B2: A156V/L174P/A166V: cyclodextrin glucosyltransferase mutant: A156V, L174P and alanine 166 into valine of SEQ ID NO: 1 (protein)
chain: SPDTSVDNKVNFSTDVIYQIVTDRFADGDRTNNPAGDAFSGDRSNLKLYFGGDWQGIIDKINDGYLTGMGVTALWISQPVENITSVIKYSGVNNTSYHGYWARDFKQTNDAFGDFADFQNLIDTAHAHNIKVVIDFAPNHTSPADRDNPGFAENGVLYDNGSLLGVYSNDTAGPFHHNGGTDFSTIEDGIYKNLYDLADINHNNNAMDAYFKSAIDLWLGMGVDGIRFDAVKHMPFGWQKSFVSSIYGGDHPVFTFGEWYLGADQTDGDNIKFANESGMNLLDFEYAQEVREVFRDKTETMKDLYEVLASTESQYDYINNMVTFIDNHDMDRFQVAGSGTRATEQALALTLTSRGVPAIYYGTEQYMTGDGDPNNRAMMTSFNTGTTAYKVIQALAPLRKSNPAIAYGTTTERWVNNDVLIIERKFGSSAALVAINRNSSAAYPISGLLSSLPAGTYSDVLNGLLNGNSITVGSGGAVTNFTLAAGGTAVWQYTAPETSPAIGNVGPTMGQPGNIVTIDGRGFGGTAGTVYFGTTAVTGSGIVSWEDTQIKAVIPKVAAGKTGVSVKTSSGTASNTFKSFNVLTGDQVTVRFLVNQANTNYGTNVYLVGNAAELGSWDPNKAIGPMYNQVIAKYPSWYYDVSVPAGTKLDFKFIKKGGGTVTWEGGGNHTYTTPASGVGTVTVDWQN
modifications: Translated from synthetic DNA
Take B2: the “content of long-chain glycosylated genistein in the reaction solution” value came to 6.8 g/L, the “content of short-chain glycosylated genistein in the reaction solution” value stood at 9.5 g/L, the “ratio of the molar content of long-chain glycosylated genistein to the molar content of total glycosylated genistein in the reaction solution” value was found to be 29% and the “ratio of the molar content of short-chain glycosylated genistein to the molar content of total glycosylated genistein in the reaction solution” value is listed as 71%. In addition, the “specificity to long-chain glycosylated genistein products in comparison with wild type” value is listed as “significantly improved” and the “increase of the yield of long-chain glycosylated genistein compared with wild-type cyclodextrin glucosyltransferase” value is listed as 112.5%.
